From patent publication US20130310317A1 (Bristol-Myers Squibb, published 2013)
Where two headings read alike, the source gives them in different places.

Columns and labels:
IGF-IR-Fc [1] = target: T1, IGF-IR-Fc (human, UniProt P08069 31-932); test: SPR (BIAcore); IGF-IR-Fc captured on Protein A, clone in solution
T1 construct: range 1-932; Made in house by transient transfection, captured on Protein A on CM5 chips for kinetic analysis; also called human IGF-IR-Fc fusion protein; recombinant, immobilized IGF-IR (BIAcore); not shown: hinge and constant regions of human IgG1
Description: One liter E. coli growths of selected optimized clones were prepared and the proteins were purified. Surface plasmon resonance (BIAcore) analysis was performed using recombinant, immobilized IGF-IR and solution-phase clones in order to determine binding kinetics and binding affinities.
(§1) The binding kinetics of fibronectin-based scaffold proteins binding proteins to the target was measured using BIAcore 2000 or 3000 biosensors (Pharmacia Biosensor). A capture assay was developed utilizing an IGF-IR-Fc fusion. A similar reagent had been described by Forbes et al. (Forbes et al. 2002, European J. Biochemistry, 269, 961-968). The extracellular domain of human IGF-IR (aa 1-932) was cloned into a mammalian expression vector containing the hinge and constant regions of human IgG1. Transient transfection of the plasmid produced a fusion protein, IGF-IR-Fc which was subsequently purified by Protein A chromatography and captured on Protein A immobilized on Biasensor CM5 chips by amine coupling. The kinetic analysis involved the capture of IGF-IR-Fc on Protein A followed by injection of the fibronectin-based scaffold protein in solution and regeneration of the Protein A surface by glycine pH 2.0. Sensorgrams were obtained at each concentration and were evaluated using a program Biaevaluation, BIA Evaluation 2.0 (BIAcore), to determine the rate constants kₐ (kₒₙ) and kd (koff) The dissociation constant, KD was calculated from the ratio of rate constants koff/kₒₙ. Typically, a concentration series (2 uM to 0 uM) of purified fibronectin-based scaffold protein was evaluated for binding to protein A captured human IGF-IR-Fc fusion protein.

[2] = target: T2, recombinant human insulin receptor (human, UniProt P06213-2 28-944, limits assumed); test: SPR (BIAcore); IR amine-coupled to chip, clone at 10 µM, signal as % of insulin signal
T2 construct: Amine-coupled to a CM5 chip (8300 RU); also called IR
Description: One liter E. coli growths of selected optimized clones were prepared and the proteins were purified.
In brief, 60 ug/mL of IR diluted in acetate 4.5 was coupled/immobilized to a level of 8300 RU and 11.9 ug/mL of VEGF-R2-Fc diluted in acetate 5.0 was immobilized to a level of 9700 RU on flow cells 2 and 3. A blank reference surface was prepared on FC 1. […] Fibronectin-based scaffold proteins were diluted to 10 uM in HBS-EP (10 mM Hepes 150 mM NaCl 3 mM EDTA 0.05% Surfactant P20) and injected at 20 uL/min for 3 minutes over the flow cells at 25 C and dissociation was observed over 10 mins.

recombinant human IGF-IR [3] = target: T3, recombinant human IGF-IR (human, UniProt P08069 31-932); test: competitive ELISA: plate coated with 30 nM IGF-IR, clone bound first, then 10 nM biotinylated IGF-I as the blocked ligand, streptavidin-HRP/TMB, OD450
T3 construct: Bought (R&D Systems); also called insulin-like growth factor-I receptor; IGF-1R
Description: MaxiSorp™ plates (Nunc International, Rochester, N.Y.) were coated with 30 nM IGF-IR in PBS at 4° C. overnight followed by blocking in OptEIA buffer (BD biosciences, San Diego, Calif.) for 3 hours at room temperature. Purified fibronectin-based scaffold proteins in OptEIA buffer were bound to each well for 1 hour at room temperature at concentrations ranging from 50 pM to 1 μM. […] The excess ligand was removed by washing with PBST and bound ligand was detected with streptavidin-HRP (Pierce, Rockford, Ill.) using TMB detection reagents (BD biosciences) according to the manufacturer's instructions

IGF-IR-Fc [4] = target: T1, IGF-IR-Fc; test: SPR (BIAcore); IGF-IR-Fc captured on Protein A, clone in solution; remark: listed apart in the source
Description: BIAcore analysis was performed using recombinant, immobilized IGF-IR and solution-phase clones in order to determine binding kinetics and binding affinities.
as §1

recombinant human IGF-IR [5] = target: T3, recombinant human IGF-IR; test: direct binding ELISA: plate coated with 10 nM IGF-IR, His-tagged clone detected with His-HRP probe, TMB, OD450
Description: MaxiSorp™ plates (Nunc International, Rochester, N.Y.) were coated with 10 nM IGF-IR in PBS at 4° C. overnight followed by blocking in PBS-casein buffer (Pierce) for 3 hours at room temperature. Purified fibronectin-based scaffold proteins in casein buffer were bound to each well for 1 hour at room temperature at a concentration of 5 nM. The plate was washed with PBST and 100 μl of a 1:4000 dilution of His-HRP probe (Pierce) was added to each well with incubation for 15 min at room temperature. The wells were washed 5 times with PBST and the bound HRP was detected with TMB detection reagents (BD biosciences) according to the manufacturer's instructions.

recombinant human IGF-IR [6] = target: T3, recombinant human IGF-IR; test: direct binding ELISA on coated IGF-IR

B1: 354A10 (designed binder)
chain: VSDVPRDLEVVAATPTSLLISWSNRLVVKRYYRITYGETGGNSPVQEFTVPHQMKTATISGLKPGVDYTITVYAVTPGGYSGRNYGPISINYRTHHHHHH
notes: Optimized derivative of 218C04
Kd (IGF-IR-Fc [1]): 0.158 nM | koff (IGF-IR-Fc [1]): 0.00018 s⁻¹ | kon (IGF-IR-Fc [1]): 1.1e+06 M⁻¹ s⁻¹ | % IR Binding at 10 µM [2]: 1%

B2: 339A01 (designed binder)
chain: VSDVPRDLEVVAATPTSLLISWSTALKVQRYYRITYGETGGNSPVQEFTVPKHSHTATISGLKPGVDYTITVYAVTKMRDYRPISINYRTHHHHHH
notes: as for B1
Kd (IGF-IR-Fc [1]): 0.565 nM | koff (IGF-IR-Fc [1]): 0.00067 s⁻¹ | kon (IGF-IR-Fc [1]): 1.2e+06 M⁻¹ s⁻¹ | % IR Binding at 10 µM [2]: > 100% | IC50 (read off the curve) (recombinant human IGF-IR [3]): ~1 nM

B3: 386A03 (designed binder)
chain: VSDVPRDLEVVAATPTSLLISWSARLKVARYYRITYGETGGNSPVQEFTVPKNVYTATISGLKPGVDYTITVYAVTNLRDYGPISINYRTHHHHHH
notes: FG loop optimized derivative of 338A06
Kd (IGF-IR-Fc [4]): 0.088 nM | koff (IGF-IR-Fc [4]): 0.00046 s⁻¹ | kon (IGF-IR-Fc [4]): 5.2e+06 M⁻¹ s⁻¹

B4: 385H06 (designed binder)
chain: VSDVPRDLEVVAATPTSLLISWSARLKVARYYRITYGETGGNSPVQEFTVPKNVYTATISGLKPGVDYTITVYAVTQLRDYSPISINYRTHHHHHH
notes: as for B3
binding result (recombinant human IGF-IR [5]): binds

B5: 385B04 (designed binder)
chain: VSDVPRDLEVVAATPTSLLISWSARLKVARYYRITYGETGGNSPVQEFTVPKNVYTATISGLKPGVDYTITVYAVTAYRDYQPISINYRTHHHHHH
notes: as for B3
binding result (recombinant human IGF-IR [5]): binds

B6: 386F01 (designed binder)
chain: VSDVPRDLEVVAATPTSLLISWSARLKVARYYRITYGETGGNSPVQEFTVPKNVYTATISGLKPGVDYTITVYAVTTIRDYRPISINYRTHHHHHH
notes: as for B3
binding result (recombinant human IGF-IR [5]): binds

B7: 387A03 (designed binder)
chain: VSDVPRDLEVVAATPTSLLISWSARLKVARYYRITYGETGGNSPVQEFTVPKNVYTATISGLKPGVDYTITVYAVTSYRDYWPISINYRTHHHHHH
notes: as for B3
binding result (recombinant human IGF-IR [5]): binds

B8: 387A09 (designed binder)
chain: VSDVPRDLEVVAATPTSLLISWSARLKVARYYRITYGETGGNSPVQEFTVPKNVYTATISGLKPGVDYTITVYAVTMSRDYGPISINYRTHHHHHH
notes: as for B3
binding result (recombinant human IGF-IR [6]): binds

B9: 386H05 (designed binder)
chain: VSDVPRDLEVVAATPTSLLISWSARLKVARYYRITYGETGGNSPVQEFTVPKNVYTATISGLKPGVDYTITVYAVTVVRDYRPISINYRTHHHHHH
notes: as for B3
binding result (recombinant human IGF-IR [5]): binds

B10: 387C02 (designed binder)
chain: VSDVPRDLEVVAATPTSLLISWSARLKVARYYRITYGETGGNSPVQEFTVPKNVYTATISGLKPGVDYTITVYAVTGVRNYGPISINYRTHHHHHH
notes: as for B3
binding result (recombinant human IGF-IR [6]): binds

B11: 385D05 (designed binder)
chain: VSDVPRDLEVVAATPTSLLISWSARLKVARYYRITYGETGGNSPVQEFTVPKNVYTATISGLKPGVDYTITVYAVTRERDYRPISINYRTHHHHHH
notes: as for B3
binding result (recombinant human IGF-IR [6]): binds

B12: 385E01 (designed binder)
chain: VSDVPRDLEVVAATPTSLLISWSARLKVARYYRITYGETGGNSPVQEFTVPKNVYTATISGLKPGVDYTITVYAVTAVRDYRPISINYRTHHHHHH
notes: as for B3
binding result (recombinant human IGF-IR [6]): binds

B13: 385F08 (designed binder)
chain: VSDVPRDLEVVAATPTSLLISWSARLKVARYYRITYGETGGNSPVQEFTVPKNVYTATISGLKPGVDYTITVYAVTSLRDYAPISINYRTHHHHHH
notes: as for B3
EC50 (read off the curve) (recombinant human IGF-IR [5]): ~0.9 nM

B14: 385E04 (designed binder)
chain: VSDVPRDLEVVAATPTSLLISWSARLKVARYYRITYGETGGNSPVQEFTVPKNVYTATISGLKPGVDYTITVYAVTELRNYGPISINYRTHHHHHH
notes: as for B3
binding result (recombinant human IGF-IR [6]): binds

B15: 386A07 (designed binder)
chain: VSDVPRDLEVVAATPTSLLISWSARLKVARYYRITYGETGGNSPVQEFTVPKNVYTATISGLKPGVDYTITVYAVTLVRNYGPISINYRTHHHHHH
notes: as for B3
binding result (recombinant human IGF-IR [6]): binds

B16: 386F11 (designed binder)
chain: VSDVPRDLEVVAATPTSLLISWSARLKVARYYRITYGETGGNSPVQEFTVPKNVYTATISGLKPGVDYTITVYAVTLTRDYKPISINYRTHHHHHH
notes: as for B3
binding result (recombinant human IGF-IR [5]): binds

B17: 385A09 (designed binder)
chain: VSDVPRDLEVVAATPTSLLISWSARLKVARYYRITYGETGGNSPVQEFTVPKNVYTATISGLKPGVDYTITVYAVTRIRDYGPISINYRTHHHHHH
notes: as for B3
binding result (recombinant human IGF-IR [5]): binds

B18: 386A05 (designed binder)
chain: VSDVPRDLEVVAATPTSLLISWSARLKVARYYRITYGETGGNSPVQEFTVPKNVYTATISGLKPGVDYTITVYAVTERRDYRPISINYRTHHHHHH
notes: as for B3
binding result (recombinant human IGF-IR [6]): binds

B19: 354F11 (designed binder)
chain: VSDVPRDLEVVAATPTSLLISWGKHLVVQRYYRITYGETGGNSPVQEFTVPRGHYTATISGLKPGVDYTITVYAVTKMRDYRPISINYRTHHHHHH
notes: as for B1
binding result (recombinant human IGF-IR [3]): binds

B20: 386F10 (designed binder)
chain: VSDVPRDLEVVAATPTSLLISWSARLKVARYYRITYGETGGNSPVQEFTVPKNVYTATISGLKPGVDYTITVYAVTLLRDYGPISINYRTHHHHHH
notes: as for B3
Kd (IGF-IR-Fc [4]): 0.123 nM | koff (IGF-IR-Fc [4]): 0.00023 s⁻¹ | kon (IGF-IR-Fc [4]): 1.9e+06 M⁻¹ s⁻¹

B21: 354G09 (designed binder)
chain: VSDVPRDLEVVAATPTSLLISWPQHLRVQRYYRITYGETGGNSPVQEFTVPRGSDTATISGLKPGVDYTITVYAVTKMRDYRPISINYRTHHHHHH
notes: as for B1
binding result (recombinant human IGF-IR [3]): binds

B22: 338A05 (designed binder)
chain: VSDVPRDLEVVAATPTSLLISWSDSLKVSRYYRITYGETGGNSPVQEFTVPKQYHTATISGLKPGVDYTITVYAVTPSNIIGRHYGPISINYRTHHHHHH
notes: as for B1
Kd (IGF-IR-Fc [1]): 0.261 nM | koff (IGF-IR-Fc [1]): 0.00033 s⁻¹ | kon (IGF-IR-Fc [1]): 1.3e+06 M⁻¹ s⁻¹ | % IR Binding at 10 µM [2]: 45%

B23: 354G02 (designed binder)
chain: VSDVPRDLEVVAATPTSLLISWAEHLQVSRYYRITYGETGGNSPVQEFTVPRGVYTATISGLKPGVDYTITVYAVTPSNIIGRHYGPISINYRTHHHHHH
notes: as for B1
binding result (recombinant human IGF-IR [3]): binds

B24: 354F06 (designed binder)
chain: VSDVPRDLEVVAATPTSLLISWTTNLQVSRYYRITYGETGGNSPVQEFTVPKANTTATISGLKPGVDYTITVYAVTVSKGNRSYGPISINYRTHHHHHH
notes: as for B1
binding result (recombinant human IGF-IR [3]): binds
